# Reference: paper PMC3969726, “ArdA proteins from different mobile genetic elements can bind to the EcoKI Type I DNA methyltransferase of E. coli K12^☆” (Biochimica et Biophysica Acta, 2014)
# B1: V583 ArdA (ArdA protein from Enterococcus faecalis V583, Orf EF2335) (natural protein, UniProt Q832A5 1-166, looked up)
# chain: MEQMRVYIANLGKYNEGELVGAWFTPPVDFDEVKERIGLNDDYEEYAIHDYELPFEIDEYTSIEEINRLCGLAEELEGTPIGEVASEIQHAFFNSFEEMVEHVDDIVYYPDCNDMEDLAYQMVNEGYLGDAPENFVRYFNYSSFARDLEIEGNYLVTNRGIFEYPI
# notes: ArdA protein, open reading frame EF2335 of Enterococcus faecalis V583; In solution an equilibrium of monomer and dimer; source: overexpressed, purified (DEAE anion exchange chromatography, size exclusion chromatography)
# Molecular target: the molecule itself
# Test: SEC; Biosep-SEC-S3000 column; 20 mM Tris-HCl, 20 mM MES, 200 mM NaCl, 10 mM MgCl2, 0.1 mM EDTA, 7 mM 2-mercaptoethanol, pH 6.5; 25 °C; apparent molecular mass against injected monomer concentration, fitted to a monomer-dimer equilibrium; apparent constants; dimer to monomers
protein,measurement,value
B1,Kd,980 nM
